Read-outs that look alike come from different tables or passages of the source.
How the values were obtained:
[1] = molecular target: microtubules (assembled from porcine brain tubulin, rhodamine-labeled, paclitaxel-stabilised) (porcine) (UniProt P02550); experiment: optical trapping
[2] = molecular target: microtubules (assembled from porcine brain tubulin, rhodamine-labeled, paclitaxel-stabilised) (porcine) (UniProt P02550); experiment: optical trapping; remark: listed apart in the source

## KinΔC (mouse KIF5B 1-888 heavy chain with bound full-length KLC2) (from UniProt Q61768 1-888; O88448 1-599) (complex)
[1]
  mean detachment force (single molecule): 6.3 pN
[2]
  mean detachment force (single molecule): 6.4 pN
